From US20220089784A1 (University of California, published 2022)
Like-named read-outs stand apart in the source and are kept apart here.

What was measured:
BoNT/F6 = target: T1, BoNT/F6 (Clostridium botulinum, UniProt P30996 1-1274); test: yeast scFv FACS
T1 sequence: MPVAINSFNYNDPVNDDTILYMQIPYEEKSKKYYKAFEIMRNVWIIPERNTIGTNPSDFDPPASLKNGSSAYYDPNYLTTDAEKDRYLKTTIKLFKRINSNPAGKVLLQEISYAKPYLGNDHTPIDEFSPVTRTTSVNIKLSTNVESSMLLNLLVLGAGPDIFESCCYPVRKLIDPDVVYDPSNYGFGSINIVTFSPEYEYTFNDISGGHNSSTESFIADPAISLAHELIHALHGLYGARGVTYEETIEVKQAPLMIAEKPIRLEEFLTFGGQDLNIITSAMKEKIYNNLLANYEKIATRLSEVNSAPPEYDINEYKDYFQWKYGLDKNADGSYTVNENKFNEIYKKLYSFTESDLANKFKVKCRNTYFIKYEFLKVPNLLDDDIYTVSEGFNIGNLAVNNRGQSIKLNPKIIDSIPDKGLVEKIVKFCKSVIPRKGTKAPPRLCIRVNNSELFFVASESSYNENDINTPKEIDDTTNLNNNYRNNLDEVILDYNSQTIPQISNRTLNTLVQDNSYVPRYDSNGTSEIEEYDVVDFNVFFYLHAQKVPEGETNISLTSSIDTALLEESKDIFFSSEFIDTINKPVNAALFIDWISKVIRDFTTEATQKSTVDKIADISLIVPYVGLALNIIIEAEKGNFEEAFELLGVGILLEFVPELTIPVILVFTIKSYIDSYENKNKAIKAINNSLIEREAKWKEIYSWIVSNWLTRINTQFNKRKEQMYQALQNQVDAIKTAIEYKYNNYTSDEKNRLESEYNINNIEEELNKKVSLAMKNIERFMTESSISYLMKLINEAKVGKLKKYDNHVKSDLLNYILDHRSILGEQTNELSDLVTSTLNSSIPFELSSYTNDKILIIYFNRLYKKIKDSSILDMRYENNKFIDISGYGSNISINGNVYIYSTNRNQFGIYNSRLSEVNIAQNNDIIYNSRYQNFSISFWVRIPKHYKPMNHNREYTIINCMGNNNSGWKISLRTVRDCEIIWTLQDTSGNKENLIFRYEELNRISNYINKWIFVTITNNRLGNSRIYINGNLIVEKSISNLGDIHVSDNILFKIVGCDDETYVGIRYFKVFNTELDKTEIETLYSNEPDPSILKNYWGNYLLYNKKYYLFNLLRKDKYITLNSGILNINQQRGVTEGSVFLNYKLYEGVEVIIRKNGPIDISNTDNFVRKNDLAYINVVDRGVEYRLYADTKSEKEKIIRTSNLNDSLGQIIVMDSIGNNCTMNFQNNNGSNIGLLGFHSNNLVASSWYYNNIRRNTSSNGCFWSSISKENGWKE

[1] = target: T2, BoNT/F1 (proteolytic BoNT/F) (Clostridium botulinum, UniProt A7GBG3 1-1278); test: yeast scFv FACS
T2 sequence: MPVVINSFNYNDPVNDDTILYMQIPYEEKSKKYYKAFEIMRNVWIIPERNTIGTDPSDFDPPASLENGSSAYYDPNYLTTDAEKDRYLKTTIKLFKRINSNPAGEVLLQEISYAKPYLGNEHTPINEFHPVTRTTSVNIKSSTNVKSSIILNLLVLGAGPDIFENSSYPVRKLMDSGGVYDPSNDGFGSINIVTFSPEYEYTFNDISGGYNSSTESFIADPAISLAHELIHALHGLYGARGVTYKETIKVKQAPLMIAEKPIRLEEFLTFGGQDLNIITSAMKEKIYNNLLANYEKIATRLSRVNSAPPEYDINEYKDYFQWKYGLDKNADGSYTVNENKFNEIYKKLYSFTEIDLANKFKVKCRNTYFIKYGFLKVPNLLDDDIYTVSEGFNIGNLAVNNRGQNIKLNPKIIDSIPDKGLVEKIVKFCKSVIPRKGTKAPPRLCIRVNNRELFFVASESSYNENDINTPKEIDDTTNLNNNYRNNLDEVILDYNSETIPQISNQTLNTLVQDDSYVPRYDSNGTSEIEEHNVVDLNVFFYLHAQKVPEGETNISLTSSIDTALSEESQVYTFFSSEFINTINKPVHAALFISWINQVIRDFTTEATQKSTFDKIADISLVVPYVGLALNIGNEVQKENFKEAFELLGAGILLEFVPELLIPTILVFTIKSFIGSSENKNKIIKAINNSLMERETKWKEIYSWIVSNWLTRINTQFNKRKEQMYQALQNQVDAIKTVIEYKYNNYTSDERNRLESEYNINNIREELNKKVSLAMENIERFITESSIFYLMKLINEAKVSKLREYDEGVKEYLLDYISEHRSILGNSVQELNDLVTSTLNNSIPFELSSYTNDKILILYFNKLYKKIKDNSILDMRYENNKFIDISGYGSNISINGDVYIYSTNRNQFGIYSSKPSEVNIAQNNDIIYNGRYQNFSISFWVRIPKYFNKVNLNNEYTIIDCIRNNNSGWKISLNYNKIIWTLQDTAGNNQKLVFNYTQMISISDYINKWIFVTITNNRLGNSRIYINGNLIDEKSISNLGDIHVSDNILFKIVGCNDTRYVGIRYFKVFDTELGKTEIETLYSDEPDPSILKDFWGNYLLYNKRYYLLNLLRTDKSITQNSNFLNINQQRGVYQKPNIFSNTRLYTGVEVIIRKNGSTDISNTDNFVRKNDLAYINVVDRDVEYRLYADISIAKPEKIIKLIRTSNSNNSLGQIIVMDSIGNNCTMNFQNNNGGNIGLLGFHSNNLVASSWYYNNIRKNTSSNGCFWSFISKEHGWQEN

BoNT/F 202F = target: T3, BoNT/F 202F (Clostridium botulinum, UniProt P30996 1-1274); test: yeast scFv FACS
T3 sequence: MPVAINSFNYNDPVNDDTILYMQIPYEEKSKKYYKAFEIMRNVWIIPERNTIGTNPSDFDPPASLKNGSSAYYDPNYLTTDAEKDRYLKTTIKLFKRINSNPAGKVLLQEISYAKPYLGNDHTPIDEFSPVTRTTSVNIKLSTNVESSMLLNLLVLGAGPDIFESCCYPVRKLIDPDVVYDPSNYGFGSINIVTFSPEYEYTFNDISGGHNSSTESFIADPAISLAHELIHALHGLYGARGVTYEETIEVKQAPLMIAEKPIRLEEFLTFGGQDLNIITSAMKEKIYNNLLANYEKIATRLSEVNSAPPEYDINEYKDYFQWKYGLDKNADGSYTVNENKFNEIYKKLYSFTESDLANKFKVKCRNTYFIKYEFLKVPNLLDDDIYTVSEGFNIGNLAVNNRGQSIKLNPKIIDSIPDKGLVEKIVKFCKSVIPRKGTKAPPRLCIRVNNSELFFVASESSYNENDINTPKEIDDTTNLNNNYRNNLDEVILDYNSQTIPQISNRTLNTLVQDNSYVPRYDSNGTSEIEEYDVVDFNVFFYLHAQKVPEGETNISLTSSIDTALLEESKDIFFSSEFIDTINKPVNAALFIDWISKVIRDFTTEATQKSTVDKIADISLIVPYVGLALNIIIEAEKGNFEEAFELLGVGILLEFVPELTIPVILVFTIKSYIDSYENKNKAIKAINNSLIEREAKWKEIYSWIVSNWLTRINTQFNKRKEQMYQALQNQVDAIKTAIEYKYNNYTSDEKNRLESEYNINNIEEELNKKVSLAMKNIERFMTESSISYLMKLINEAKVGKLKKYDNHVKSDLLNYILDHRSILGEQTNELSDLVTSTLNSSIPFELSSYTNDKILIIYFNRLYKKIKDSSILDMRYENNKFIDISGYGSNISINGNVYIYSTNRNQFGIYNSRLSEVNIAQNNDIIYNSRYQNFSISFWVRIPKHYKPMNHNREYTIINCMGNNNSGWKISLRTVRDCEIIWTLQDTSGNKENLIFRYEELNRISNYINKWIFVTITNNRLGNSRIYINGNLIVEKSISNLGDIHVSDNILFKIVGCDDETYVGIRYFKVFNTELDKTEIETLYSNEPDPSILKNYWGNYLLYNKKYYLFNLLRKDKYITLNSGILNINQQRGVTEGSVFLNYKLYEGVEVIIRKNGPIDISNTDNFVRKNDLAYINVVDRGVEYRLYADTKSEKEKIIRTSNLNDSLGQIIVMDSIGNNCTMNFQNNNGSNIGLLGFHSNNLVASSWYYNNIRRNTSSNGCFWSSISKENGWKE

[2] = target: T2, BoNT/F1 (proteolytic BoNT/F); test: yeast scFv FACS; remark: listed apart in the source
[3] = target: T4, BoNT/A2 holotoxin (FRI-H1A2) (Clostridium botulinum, UniProt Q45894 2-1296)
T4 sequence (Q45894 2-1296): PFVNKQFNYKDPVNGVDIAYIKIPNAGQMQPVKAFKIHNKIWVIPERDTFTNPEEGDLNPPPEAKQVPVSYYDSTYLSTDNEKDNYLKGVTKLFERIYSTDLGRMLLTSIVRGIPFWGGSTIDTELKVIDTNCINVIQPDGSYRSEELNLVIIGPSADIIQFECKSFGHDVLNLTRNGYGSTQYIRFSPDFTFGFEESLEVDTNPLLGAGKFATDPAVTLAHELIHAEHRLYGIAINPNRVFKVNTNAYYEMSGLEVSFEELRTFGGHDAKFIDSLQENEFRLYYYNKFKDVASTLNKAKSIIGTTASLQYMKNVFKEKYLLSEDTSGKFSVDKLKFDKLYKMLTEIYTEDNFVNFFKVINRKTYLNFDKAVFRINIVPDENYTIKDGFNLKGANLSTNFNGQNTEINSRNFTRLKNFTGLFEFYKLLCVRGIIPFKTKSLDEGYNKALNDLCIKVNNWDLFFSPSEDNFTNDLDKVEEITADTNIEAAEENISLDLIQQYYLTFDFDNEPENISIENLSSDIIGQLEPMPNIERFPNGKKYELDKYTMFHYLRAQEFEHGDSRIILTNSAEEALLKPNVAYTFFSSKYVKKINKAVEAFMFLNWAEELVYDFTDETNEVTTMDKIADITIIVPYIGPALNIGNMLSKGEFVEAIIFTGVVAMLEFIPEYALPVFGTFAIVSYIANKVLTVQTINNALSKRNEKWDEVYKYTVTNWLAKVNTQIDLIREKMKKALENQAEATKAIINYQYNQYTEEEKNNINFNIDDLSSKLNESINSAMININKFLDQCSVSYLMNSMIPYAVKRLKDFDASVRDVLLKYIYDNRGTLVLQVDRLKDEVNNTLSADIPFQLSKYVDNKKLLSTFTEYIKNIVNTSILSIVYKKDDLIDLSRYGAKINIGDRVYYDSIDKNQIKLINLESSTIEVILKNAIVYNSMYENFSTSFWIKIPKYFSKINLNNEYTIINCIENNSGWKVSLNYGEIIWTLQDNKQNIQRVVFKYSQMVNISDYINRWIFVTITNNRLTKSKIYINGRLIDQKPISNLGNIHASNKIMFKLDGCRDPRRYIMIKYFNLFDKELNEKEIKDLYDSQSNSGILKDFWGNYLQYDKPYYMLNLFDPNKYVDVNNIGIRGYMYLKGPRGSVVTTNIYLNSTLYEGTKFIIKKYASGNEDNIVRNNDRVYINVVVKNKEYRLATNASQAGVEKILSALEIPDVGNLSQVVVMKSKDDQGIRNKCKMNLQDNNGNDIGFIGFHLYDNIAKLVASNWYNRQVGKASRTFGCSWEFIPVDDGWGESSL

[4] = target: T5, BoNT/A1 holotoxin (Hall hyper) (Clostridium botulinum, UniProt P0DPI0 2-1296)
[5] = target: BoNT/A light chain (recombinant) (Clostridium botulinum, UniProt P0DPI0 1-448); test: KinExA, IgG
[6] = target: T4, BoNT/A2 holotoxin (FRI-H1A2); test: KinExA, IgG
[7] = target: T5, BoNT/A1 holotoxin (Hall hyper); test: KinExA, IgG
[8] = target: T2, BoNT/F1 (proteolytic BoNT/F)

B1: 28H2 scFv (scFv, V domains shown)
VH: QVQLQESGPGLVKPSQTVSLTCTVAGYSITNGNHWWNWIRQVSGSKLEWIGYITSSGSTDSNPSLKSRISITRDTSKNQLFLQLNSVTTEDIATYYCARSSNYFFHVLDYWGQGTSVTVSS
VL: DIVLTQTPAIMSASPGEKVTMTCSASSSVSYMHWFQQKPGTSPKLWIYSTSNLASGVPARFSGSGSGTSYSLTISRMEAEDAATYYCQQRSSYPPTFGGGTRLEIK
- binding result (BoNT/F6): no binding (tested: maximum toxin concentration tested)
- Kd [1]: 1.55 nM
- binding result (BoNT/F 202F): no binding
- Kd [2]: 1.55 nM

B2: A9 (antibody, V domains shown)
VH: QVQLVQSGGGVVQPGRSLRLSCAASGFTFSSYGMHWVRQAPGKGLEWVSSISSSSSYIYYADSVKGRFTISRDNSKNTLYLQMNSLRAEDTAVYYCARGAVAGGSYGMDVWGQGTMVTVSS
VL: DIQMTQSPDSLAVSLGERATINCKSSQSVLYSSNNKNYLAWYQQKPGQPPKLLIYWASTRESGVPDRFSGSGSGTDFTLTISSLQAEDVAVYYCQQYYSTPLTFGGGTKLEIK
- Kd [3]: 0.223 nM
- Kd [4]: 0.0771 nM

B3: ING2 IgG (antibody, V domains shown)
VH: QVQLVQSGAEVKKPGSSVKVSCKASGDTFNRNAIAWVRQAPGQGLEWMGRIIPNLRTTHYAQKFQGRVAITADKHTNTVFMELSSLRSEDTAVYYCARDPYYYSYMDVWGKGTTVTVSS
VL: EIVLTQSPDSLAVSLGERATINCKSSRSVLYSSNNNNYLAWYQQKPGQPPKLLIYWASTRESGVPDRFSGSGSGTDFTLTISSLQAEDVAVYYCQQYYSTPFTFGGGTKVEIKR
- Kd [5]: 85.7 nM
- Kd [6]: 0.00742 nM
- Kd [7]: 0.00957 nM

B4: 4E17.2 scFv (scFv, V domains shown)
VH: EVQLVQSGGNLVQPGGSLRLSCAATGPIGSHWMTWVRQAPGQGLEWVANINLDGTEKFYVDSVKGRFTVSRDNRKSSVFLQMNNLRVDDTAVYYCARLQWGGYNGWLSPWGQGTLVTVSS
VL: DIEMTQSPPSLSASVGDRVSLTCRASEYIGTSLNWYQQKPGKAPKLLIYAASALHSGVPSRFSGSGSGTDFTLTISGLQPEDFATYYCQQANDLPLTFGGGTKLEIK
- Kd [8]: < 1 nM
- Kd [1]: 0.39 nM
- binding result (BoNT/F 202F): binds
- Kd [2]: 0.39 nM

B5: 4E17.1 (antibody, V domains shown)
VH: EVQLVRSGGNLVQPGGSLRLSCAATGPIGSHWMTWVRQAPGQGLEWVANINLDGTEKFYVDSVKGRFTVSRDNRKSSVFLQMNNLRVDDTAVYYCARLQWGGYNGWLSPWGQGTLVTVSS
VL: DIVMTQSPSSLSASVGDRVTISCRASQSIRHYVNWYQQKPGKAPKLLIYKASSLASGAPSRFSGSGSGTDFTLTISSLQPDDFATYYCQQSYSIPLTFGGGTKVEIKR
- Kd [3]: 0.00798 nM
- Kd [4]: 0.00183 nM

B6: 42G8 scFv (scFv, V domains shown)
VH: EVQLVPSGGNLVQPGGSLRLSCAATGPIGSHWMTWVRQAPGQGLEWVANINLDGTEKFYVDSVKGRFTVSRDNRKSSVFLQMNNLRVDDTAVYYCARLQWGGYNGWLSPWGQGTLVTVSS
VL: DIVMTQSPPSLSASVGDRVSLTCRASEYIGTSLNWYQQKPGKAPKLLIYAASALHSGVPSRFSGSGSGTDFTLTISGLQPEDFATYYCQQTNDLPLTFGGGTKLEIK
- fold increase in affinity over scFv 4E17.2 [8]: ~6 fold
- binding result (BoNT/F 202F): binds
- Kd [2]: 0.243 nM

B7: 6A1M IgG (antibody, V domains shown)
VH: LQLKQSGPGLVKPSQSLSLTCSVTGYSITSGYYWYWIRQFPGNKLEWMGYISYDGSNNYNPSLKNRISITRDTSKNQFFLKLNSVTTEDTATYYCARNLGLWYFDVWGTGTPLTVSS
VL: EIVLTQSPAILSASPGEKVTMTCRASSSVRYMHWYQQKPGSSPKPWIYATSNLASGVPARFSGSGSGTSYSLTISRVEAEDAATYYCQQWSGNAPTFGGGTKLEIK
notes: IgG converted from scFv
- Kd [5]: 1.38 nM
- Kd [6]: 0.00289 nM
- Kd [7]: 0.00921 nM
